From US20210221907A1 (published 2021)
Residue numbers refer to the chain shown, from its start.

B1: TROP2-Ab46 (antibody, V domains shown)
VH: QVQLQQPGAELVRPGASVRLSCKSSGYTFTSYWINWVKQRPGQGLEWIGNIFPSHSYTNYNQKFRDKATLTVDKSSSTAYLQLSSPTSDDSAVYYCTRGSGFDYWGQGTALTVSS
VL: DILLTQSPAILSVSPGERVSFSCRASQNIGTSIHWYQQRTNGSPRLLISYASESISGIPSRFSGSGSGTDFTLIINSVESEDIADYYCQHSYSWPFTFGSGTKLEVK
notes: Monoclonal antibody from a hybridoma clone
B2: TROP2-Ab50 (antibody, V domains shown)
VH: QVQLQQSGAELVRPGTSVKISCKASGYTFTNYWLDWIKQRPGQGLEWIGNIFPGGDYTNYNEEFRGKATLTADTSSRTAFMQLSSLTSEDSAVYFCARSSYDYWGQGTLVTVSA
VL: B1 VL with S49K, A51S, T72S, I74T, A84G, S93T, V106I
notes: Monoclonal antibody from a hybridoma clone; also called TROP2 -Ab0
B3: TROP2-Ab8 (antibody, V domains shown)
VH: QVQLQQSGPEVVKPGASVKMSCKASGYRFTDYVINWVKQRTGQGLEWIGQIYPGSDSFHYNKNFKGKATLTADKSSNTAYMQLNSLTSEDSAVYFCARFFEGLAYWGQGTLVTVSA
VL: DIKMTQSPSSMYAFLGERVTITCKASQGINNYLSWFQLKPGKSPKSLIYRANRLVDGVPSRFSGSGSGQDYSLTISSLDYEDMGIYYCLQYDEFPLTFGGGTKLELK
notes: as for B1
B4: TROP2-Ab22 (antibody, V domains shown)
VH: QVQLQQSGPELVKPGASVKMSCKASGYTFTDYVINWVKQRPGQGLEWVGQIYPGSDGTYYNEPFKGEATLTADKSSNTAYMQLSSLTSEDSAVYFCARFFEGFAYWGQGTLVTVSA
VL: B3 VL with Y12F, F14S, G28D, N31W, L38Q, S46T, I85V, D92E, G100A
notes: as for B1
B5: TROP2-Ab7 (antibody, V domains shown)
VH: B3 VH with T41S, S57T, L103F
VL: B3 VL with Q37H, M83V
notes: Monoclonal antibody from a hybridoma clone (V regions amplified with mouse Ig primers)
B6: TROP2-Ab51 (antibody, V domains shown)
VH: B3 VH with K23R, L103F
VL: B3 VL
notes: as for B1

Biological target: T1, TROP2 on MDA-468 cells over-expressing TROP2 (TROP2+ MDA-468) (UniProt P09758 27-323)
T1 sequence (looked up): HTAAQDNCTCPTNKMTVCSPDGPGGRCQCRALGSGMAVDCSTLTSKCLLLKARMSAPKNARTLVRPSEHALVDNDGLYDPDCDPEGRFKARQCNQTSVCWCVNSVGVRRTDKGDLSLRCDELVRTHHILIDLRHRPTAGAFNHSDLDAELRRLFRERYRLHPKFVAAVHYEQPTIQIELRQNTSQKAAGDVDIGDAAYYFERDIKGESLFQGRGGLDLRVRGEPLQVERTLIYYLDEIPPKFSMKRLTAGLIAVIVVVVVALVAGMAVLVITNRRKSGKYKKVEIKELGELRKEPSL
Experiment: cell-based or functional assay

| Binder | Indirect Cytotoxicity Cell viability % [%] | Indirect Cytotoxicity IC50 [nM] |
| --- | --- | --- |
| B1 | 27 | 0.0672 |
| B2 | 45 | 0.0992 |
| B3 | 26 | 0.0271 |
| B4 | 34 | 0.0587 |
| B5 | 34 | 0.044 |
| B6 | 39 | 0.0567 |

Biological target: T2, recombinant TROP2 protein (UniProt P09758 27-274, limits assumed)
T2 construct: also called rProtein
T2 sequence (looked up): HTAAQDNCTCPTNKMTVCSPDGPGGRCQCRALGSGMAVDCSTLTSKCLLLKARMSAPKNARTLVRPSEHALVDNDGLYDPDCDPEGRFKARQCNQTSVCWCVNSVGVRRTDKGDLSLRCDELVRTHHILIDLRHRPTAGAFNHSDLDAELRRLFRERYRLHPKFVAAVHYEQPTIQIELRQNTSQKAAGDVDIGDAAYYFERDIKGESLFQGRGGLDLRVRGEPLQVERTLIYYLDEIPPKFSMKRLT
Experiment: ELISA titration, antibody with varying concentrations of recombinant TROP2 protein
Description: Antibodies were tested in an antigen binding assay using ELISA titration experiments. Antibodies were incubated with varying concentrations of recombinant TROP2 protein [rProtein].

| rProtein ELISA Affinity [nM] | Binder |
| --- | --- |
| < 0.1 | B1 |
| < 0.1 | B2 |
| < 0.1 | B3 |
| 0.19 | B4 |
| 0.1 | B5 |
| < 0.1 | B6 |
